Assay [1] concerns the target α-syn aggregates of PD patient brain (Homo sapiens (Human).) (UniProt P37840). As to the kind of experiment: ELISA.
Assay [2] deals with α-syn aggregates of MSA patient brain (Homo sapiens (Human).) (UniProt P37840). As to the kind of experiment: ELISA.
For assay [3], the target named is human α-syn oligomers (ND Biosciences) (Homo sapiens (Human).) (UniProt P37840). Put plainly: microfluidic diffusional sizing.
Assay [4] deals with Full length, human α-synuclein, recombinant monomer (Homo sapiens (Human).) (UniProt P37840). Put plainly: microfluidic diffusional sizing.
In the next assay the target is Cinpanemab (BIIB-054). Put plainly: SPR.

In the case of “Lu AF82422 (amlenetug), monospecific wild type human IgG1 (antibody)”, the EC50 in assay [1] was 0.16 nM; in assay [2], 0.09 nM. For the same substance, the Kd amounted to 0.3 nM in assay [3] and 12 nM in assay [4].
With “Full length, human α-synuclein, recombinant monomer (from UniProt P37840 1-140) (natural protein)”, the Kd with Cinpanemab (BIIB-054) is above 100 nM.

The values are drawn from article PMC12098740.
